Data as given in patent US20240239884A1 (Merck Sharp & Dohme, published 2024).

How the values were obtained:
human IL-23 [1] = molecular target: T1, human IL-23 (human, UniProt P29460 23-328); assay: equilibrium binding ELISA on plates coated with human IL-23; potency against reference material; storage at 5 C, initial
T1 construct: also called human IL-23 cytokine; human IL-23 protein
T1 sequence 1: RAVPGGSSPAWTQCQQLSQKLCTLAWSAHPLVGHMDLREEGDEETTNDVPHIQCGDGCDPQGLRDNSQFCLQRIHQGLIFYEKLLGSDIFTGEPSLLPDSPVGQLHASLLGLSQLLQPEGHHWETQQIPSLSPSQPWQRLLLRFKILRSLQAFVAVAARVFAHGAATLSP
T1 sequence 2: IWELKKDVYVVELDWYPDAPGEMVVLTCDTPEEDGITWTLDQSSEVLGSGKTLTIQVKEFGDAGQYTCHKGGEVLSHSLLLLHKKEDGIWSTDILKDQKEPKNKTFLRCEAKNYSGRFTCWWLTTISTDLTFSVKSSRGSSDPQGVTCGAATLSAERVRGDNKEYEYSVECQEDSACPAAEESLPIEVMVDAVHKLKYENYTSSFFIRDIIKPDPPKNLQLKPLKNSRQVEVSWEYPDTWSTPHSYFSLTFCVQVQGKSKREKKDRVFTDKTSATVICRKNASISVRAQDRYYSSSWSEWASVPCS
Protocol: (§1) The affinity of hum13B8-b in the formulations of the present invention for human IL-23 is assessed in an equilibrium binding ELISA, where serial dilutions of reference material and test samples are applied to assay plates coated with human IL-23 cytokine. This assay may be used, for example, to assess retention of biological activity in various potential therapeutic formulations. Relative potency of the test sample is assessed by comparison of the dose response curve of the test sample to the dose response curve of reference material and calculated as percent of reference.
(§2) ELISAs are performed by methods well known in the art. Briefly, serial dilutions of hum13B8-b in a formulation of the present invention are added to wells of a microtiter plate that had been previously coated with human IL-23 protein and then blocked. After an incubation period, wells are washed and a peroxidase-conjugated goat anti-human IgG (Fc) detection antibody reagent is added. Wells are again washed, and a chemiluminescent peroxidase substrate is added. Signal is read out by chemiluminescence. […] Relative biological potency is calculated by comparing results obtained with test samples with a standard curve based on signal levels obtained with a reference sample. […]

human IL-23 [2] = molecular target: T1, human IL-23; assay: equilibrium binding ELISA on plates coated with human IL-23; potency against reference material; storage at 5 C, 6 months
Protocol: as §1, §2

human IL-23 [3] = molecular target: T1, human IL-23; assay: equilibrium binding ELISA on plates coated with human IL-23; potency against reference material; storage condition 25H table, initial
Protocol: as §1, §2

human IL-23 [4] = molecular target: T1, human IL-23; assay: equilibrium binding ELISA on plates coated with human IL-23; potency against reference material; storage condition RH4 table, initial
Protocol: as §1, §2

human IL-23 [5] = molecular target: T1, human IL-23; assay: equilibrium binding ELISA on plates coated with human IL-23; potency against reference material; storage at 25H (25 C/60% RH), 6 months
Protocol: as §1, §2

human IL-23 [6] = molecular target: T1, human IL-23; assay: equilibrium binding ELISA on plates coated with human IL-23; potency against reference material; storage at RH4 (40 C/75% RH), 6 months
Protocol: as §1, §2

human IL-23 [7] = molecular target: T1, human IL-23; assay: equilibrium binding ELISA on plates coated with human IL-23; potency against reference material; storage at 5 C, 12 months (second Binding ELISA row)
Protocol: as §1, §2

human IL-23 [8] = molecular target: T1, human IL-23; assay: equilibrium binding ELISA on plates coated with human IL-23; potency against reference material; storage at 5 C, 18 months (second Binding ELISA row)
Protocol: as §1, §2

human IL-23 [9] = molecular target: T1, human IL-23; assay: equilibrium binding ELISA on plates coated with human IL-23; potency against reference material; storage at 5 C, 24 months (second Binding ELISA row)
Protocol: as §1, §2

human IL-23 [10] = molecular target: T1, human IL-23; assay: equilibrium binding ELISA on plates coated with human IL-23; potency against reference material; storage at 25H (25 C/60% RH), 12 months (second Binding ELISA row)
Protocol: as §1, §2

B1: humanized anti-IL-23p19 antibody 13B8-b (antibody, human IgG1, kappa, V domains shown)
VH: QVQLVQSGAEVKKPGASVKVSCKASGYIFITYWMTWVRQAPGQGLEWMGQIFPASGSADYNEKFEGRVTMTTDTSTSTAYMELRSLRSDDTAVYYCARGGGGFAYWGQGTLVTVSS
VL: DIQMTQSPSSLSASVGDRVTITCRTSENIYSYLAWYQQKPGKAPKLLIYNAKTLAEGVPSRFSGSGSGTDFTLTISSLQPEDFATYYCQHHYGIPFTFGQGTKVEIKR
notes: Made in CHO cells; Tested as a stored formulation (10 mM histidine pH 6.0, 7% sucrose, 0.05% polysorbate 80, about 100 mg/ml); also called hum13B8-b; anti-IL-23p19 mAb hum13B8-b
Binding ELISA Potency relative to control [%] (human IL-23 [1]): 112% | Binding ELISA Potency relative to control [%] (human IL-23 [2]): 96% | Binding ELISA Potency relative to control [%] (human IL-23 [3]): 112% | Binding ELISA Potency relative to control [%] (human IL-23 [4]): 112% | Binding ELISA Potency relative to control [%] (human IL-23 [5]): 99% | Binding ELISA Potency relative to control [%] (human IL-23 [6]): 104% | Binding ELISA Potency relative to control [%] (human IL-23 [7]): 98% | Binding ELISA Potency relative to control [%] (human IL-23 [8]): 100% | Binding ELISA Potency relative to control [%] (human IL-23 [9]): 103% | Binding ELISA Potency relative to control [%] (human IL-23 [10]): 105%
